This is an account of results in paper PMC2909360 (Molecular microbiology, 2010).

Common to all, as to assay: cell-based or functional assay
For test [1], the target named is recombinant human cathepsin L (human, UniProt P07711 18-333).
Test [2] has as its target recombinant human cathepsin S (human, UniProt P25774 17-331).
A further test has as its target T1, purified papain (UniProt P00784 134-345).
T1 sequence (looked up): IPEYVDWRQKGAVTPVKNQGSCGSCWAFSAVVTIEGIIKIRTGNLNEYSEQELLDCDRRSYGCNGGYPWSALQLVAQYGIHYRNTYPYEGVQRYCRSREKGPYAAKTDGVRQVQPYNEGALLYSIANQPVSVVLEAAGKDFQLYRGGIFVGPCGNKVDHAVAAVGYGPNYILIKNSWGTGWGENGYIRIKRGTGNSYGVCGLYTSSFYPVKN

Test [3] has as its target purified bovine cathepsin C (bovine).

recombinant human cathepsin L, sequence (P07711 18-333): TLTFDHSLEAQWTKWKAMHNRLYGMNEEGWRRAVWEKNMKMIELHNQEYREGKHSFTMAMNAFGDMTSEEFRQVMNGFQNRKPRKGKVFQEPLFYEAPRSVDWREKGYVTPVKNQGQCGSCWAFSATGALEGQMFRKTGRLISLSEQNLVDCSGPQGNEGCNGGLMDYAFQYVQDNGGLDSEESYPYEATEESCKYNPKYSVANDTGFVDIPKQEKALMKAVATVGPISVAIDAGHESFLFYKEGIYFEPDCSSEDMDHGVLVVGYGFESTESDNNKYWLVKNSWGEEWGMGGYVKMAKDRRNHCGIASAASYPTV
purified bovine cathepsin C (bovine), sequence (Q3ZCJ8 25-463): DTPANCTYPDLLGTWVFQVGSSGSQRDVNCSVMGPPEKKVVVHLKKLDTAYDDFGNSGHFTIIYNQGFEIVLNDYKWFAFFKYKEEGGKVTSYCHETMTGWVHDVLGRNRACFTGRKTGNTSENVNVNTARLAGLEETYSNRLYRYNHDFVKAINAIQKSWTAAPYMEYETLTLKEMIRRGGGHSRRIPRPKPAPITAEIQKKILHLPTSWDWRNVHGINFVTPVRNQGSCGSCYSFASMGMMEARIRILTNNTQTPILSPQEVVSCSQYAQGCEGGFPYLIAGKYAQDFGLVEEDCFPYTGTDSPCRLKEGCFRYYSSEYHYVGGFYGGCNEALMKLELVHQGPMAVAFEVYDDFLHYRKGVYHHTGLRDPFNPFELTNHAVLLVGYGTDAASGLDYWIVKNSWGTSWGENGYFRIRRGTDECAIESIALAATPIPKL
recombinant human cathepsin S, sequence (P25774 17-331): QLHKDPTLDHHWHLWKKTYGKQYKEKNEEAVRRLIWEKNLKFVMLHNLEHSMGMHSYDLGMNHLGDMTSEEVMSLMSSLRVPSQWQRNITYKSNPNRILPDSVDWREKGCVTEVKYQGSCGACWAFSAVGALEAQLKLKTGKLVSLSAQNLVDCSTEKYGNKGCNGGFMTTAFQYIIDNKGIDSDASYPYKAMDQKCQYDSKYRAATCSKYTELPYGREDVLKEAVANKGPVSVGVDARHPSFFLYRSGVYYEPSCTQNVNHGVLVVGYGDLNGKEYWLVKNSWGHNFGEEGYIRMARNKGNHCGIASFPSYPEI

B1: sialostatin L2 (natural protein)
chain: MELALRGGYRERSNQDDPEYLELAHYATSTWSAQQPGKTHFDTVVEVLKVETQTVAGTNYRLTLKVAESTCELTSTYNKDTCQANANAAQRTCTTVIYRNLQGEKSISSFECAAA
As for B1, the “IC50 of inhibition of enzyme activity (fluorogenic substrate)” value is 1.1 nM in test [1], 114 nM in test [2], 0.4 nM with purified papain and 4720 nM in test [3].

B2: sialostatin L (natural protein)
chain: TGVFGGYSERANHQANPEFLNLAHYATSTWSAQQPGKTHFDTVAEVVKVETQVVAGTNYRLTLKVAESTCELTSTYNKDTCLPKADAAHRTCTTVVFENLQGDKSVSPFECEAA
With B2, the “IC50 of inhibition of enzyme activity (fluorogenic substrate)” value is 1.6 nM in test [1], 0.2 nM in test [2], 0.5 nM with purified papain and 160 nM in test [3].
